Experimental data from US20110311550A1 (Scripps Research, published 2011).

B1: MAb AR1B (antibody, V domains shown)
VH: LESGGGLVQPGGSLRLSCEASGYYFSSFAMSWVRQTPGKGLEWVSSIAGGTLGRTSYRDSVKGRFTISRDNSKNTVFLHMNNLRPEDTAVYYCAKDPLLFAGGPNWFDHWGQGTLVTVSS
VL: not shown
notes: also called IgG1 of Fab D1
B2: MAb AR3D (antibody, V domains shown)
VH: LEQSGAEVKKPGSSVKVSCKASGDTFRSYVITWARQAPGQGLEWMGAIIPFFGTTNLAQKFQGRVTITADESTKTVYMDLSSLRSDDTAVYYCAKAGDLSVGGVLAGGVPHLRHFDPWGQGTLVTVSS
VL: ELTQSPGTLSLSPGERATLSCRAGQTVASNSLAWYQHKPGQAPRLLIYGASIRASGIPDRFSGSGSGTDFTLTISRLEPEDFAVYYCQQYGLSSTFGQGTRLEIKR
notes: also called IgG1 of Fab L4
B3: MAb AR1A (antibody, V domains shown)
VH: LEQSGAEVKKPGSSVKVSCRASGSPYSSYTITWVRQAPGQGLEWMGGIILMTGKANYAQKFQGRVTITADRATATAYMEMSSLTSDDTAIYYCARDPYVYAGDDVRSLSRWGQGTPVIVSS
VL: not shown
notes: also called IgG1 of Fab B2
B4: MAb AR2A (antibody, V domains shown)
VH: LEQSGAEMKKPGASLKVSCKTSGYTFDDYGVTWVRQAPGQGLEWMGWISAYSGNTFYARKFQGRVTMTTDPSTRTAYMELRSLRSDDTAVYFCARDRGLAINGVVFPYFGLDVWGQGTTVTVSS
VL: ELTQSPVSLPVTPGEPASISCRSSQSLLHSNGNHYLDWYLQKPGQSPQLLMYLGSNRASGVPDRFSGSGSGTDFTLKISRVEAEDVGVYYCMQGLQTPWTFGQGTKVEIKR
notes: also called IgG1 of Fab G
B5: MAb AR3C (antibody, V domains shown)
VH: LEQSGAEVKKPGSSVKVSCETSGGTLDNYALNWVRQAPGQGLEWIGGVVPLFGTTRNAQKFQGRVTISDDKSTGTGHMELRSLRSEDTAVYYCVRSVTPRYCGGGFCYGEFDYWGQGTLVTVSS
VL: ELTQSPATLSVSPGERATLSCRASQSVSSNLAWYQQKPGQAPRLLIYGASTRATGIPARFSGSGSGTEFTLTVSRLEPEDSAVYFCQQYYRSPLTFGGGTKVEIKR
notes: also called IgG1 of Fab H3

What was measured:
[1] = molecular target: T1, vaccinia-expressed E1E2 complex, isolate HCV-1 (genotype 1a) (hepatitis C virus, isolate HCV-1, UniProt P26664 192-383; P26664 384-746); assay: competition ELISA on HCV-1 E1E2; competitor m19 (CBH-4B)
[2] = molecular target: T1, vaccinia-expressed E1E2 complex, …; assay: competition ELISA on HCV-1 E1E2; competitor m4 (AR3A)
[3] = molecular target: T2, E1E2 complex of HCV isolate H77 (genotype 1a), wild type (HCV isolate H77, UniProt P27958 192-383; P27958 384-746); assay: competition ELISA on H77 E1E2; competitor m44 (Fab P2)
[4] = molecular target: T1, vaccinia-expressed E1E2 complex, …; assay: competition ELISA on HCV-1 E1E2; competitor m34 (6/53)
[5] = molecular target: T1, vaccinia-expressed E1E2 complex, …; assay: competition ELISA on HCV-1 E1E2; competitor m21 (CBH-5)
[6] = molecular target: T1, vaccinia-expressed E1E2 complex, …; assay: competition ELISA on HCV-1 E1E2; competitor m27 (3/11)
[7] = molecular target: T1, vaccinia-expressed E1E2 complex, …; assay: competition ELISA on HCV-1 E1E2; competitor m31 (11/20)
[8] = molecular target: T1, vaccinia-expressed E1E2 complex, …; assay: competition ELISA on HCV-1 E1E2; competitor m30 (7/16B)
[9] = molecular target: H77 E1E2 mutant P545A (HCV isolate H77, UniProt P27958 192-383; P27958 384-746); assay: ELISA, alanine mutant E1E2
[10] = molecular target: H77 E1E2 mutant Y485A (HCV isolate H77, UniProt P27958 192-383; P27958 384-746); assay: ELISA, alanine mutant E1E2
[11] = molecular target: H77 E1E2 mutant D535A (HCV isolate H77, UniProt P27958 192-383; P27958 384-746); assay: ELISA, alanine mutant E1E2
[12] = molecular target: H77 E1E2 mutant N417A (HCV isolate H77, UniProt P27958 192-383; P27958 384-746); assay: ELISA, alanine mutant E1E2
[13] = molecular target: T1, vaccinia-expressed E1E2 complex, …; assay: competition ELISA on HCV-1 E1E2; competitor m24 (7/59)
[14] = molecular target: T1, vaccinia-expressed E1E2 complex, …; assay: competition ELISA on HCV-1 E1E2; competitor m23 (H53)
[15] = molecular target: T1, vaccinia-expressed E1E2 complex, …; assay: competition ELISA on HCV-1 E1E2; competitor m25 (9/27)
[16] = molecular target: T2, E1E2 complex of HCV isolate H77 …; assay: competition ELISA on H77 E1E2; competitor m46 (Fab P4)
[17] = molecular target: T1, vaccinia-expressed E1E2 complex, …; assay: competition ELISA on HCV-1 E1E2; competitor m7 (AR3D)
[18] = molecular target: T1, vaccinia-expressed E1E2 complex, …; assay: competition ELISA on HCV-1 E1E2; competitor m3 (AR2A)
[19] = molecular target: T2, E1E2 complex of HCV isolate H77 …; assay: competition ELISA on H77 E1E2; competitor m42 (Fab P1)
[20] = molecular target: T2, E1E2 complex of HCV isolate H77 …; assay: competition ELISA on H77 E1E2; competitor m41 (Fab O1)
[21] = molecular target: T1, vaccinia-expressed E1E2 complex, …; assay: competition ELISA on HCV-1 E1E2; competitor m28 (1/39)
[22] = molecular target: T2, E1E2 complex of HCV isolate H77 …; assay: competition ELISA on H77 E1E2; competitor m43 (Fab P1a)

Binder | % residual binding [1] [%] | % residual binding [2] [%] | % residual binding [3] [%] | % residual binding [4] [%] | % residual binding [5] [%] | % residual binding [6] [%] | % residual binding [7] [%] | % residual binding [8] [%] | binding vs wild-type E1E2 [9] [%] | binding vs wild-type E1E2 [10] [%] | binding vs wild-type E1E2 [11] [%] | % residual binding [14] [%] | % residual binding [15] [%] | % residual binding [16] [%] | % residual binding [17] [%] | % residual binding [18] [%] | % residual binding [19] [%] | % residual binding [20] [%] | % residual binding [21] [%] | % residual binding [22] [%] | other results
B1 | 106 | 76 | 99 | 92 | 89 | 61 | 79 | 91 | 20 | 30 | 121 | 12 | 70 | 95 | 84 | 89 | 97 | 95 | 89 | 100 | binding vs wild-type E1E2 [12]: 54%; % residual binding [13]: 77%
B2 | 97 | 13 | 138 | 103 | 18 | 37 | 47 | 94 | 307 | 145 | 32 | 74 | 49 | 145 | 14 | 75 | 145 | 83 | 80 | 138 | binding vs wild-type E1E2 [12]: 74%
B3 | 102 | 44 | 91 | 89 | 54 | 66 | 84 | 86 | 74 | 17 | 235 | 20 | 74 | 85 | 54 | 100 | 86 | 76 | 84 | 88 | binding vs wild-type E1E2 [12]: 17%; % residual binding [13]: 70%
B4 | 87 | 76 | 82 | 92 | 91 | 94 | 84 | 95 | 106 | 67 | 133 | 107 | 67 | 79 | 75 | 15 | 82 | 88 | 90 | 82 | binding vs wild-type E1E2 [12]: 58%; % residual binding [13]: 99%
B5 | 99 | 9 | 140 | 105 | 19 | 44 | 62 | 99 |  |  |  | 77 | 62 | 155 | 12 | 83 | 131 | 77 | 83 | 145 | % residual binding [13]: 95%
